This series can be described thus: label from the status in PepcDB records.

Drawing on a protein production outcome set (Wang et al. 2014), this text covers protein production for 14 sequences.
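Further: failed if final PepcDB status was selected cloned or expressed and not failed if soluble or beyond.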

In the case of “MLEEYRKHVAERAAEGIAPKPLDANQMAALVELLKNPPAGEEEFLLDLLTNRVPPGVDEAAYVKAGFLAAIAKGEAKSPLLTPEKAIELLGTMQGGYNIHPLIDALDDAKLAPIAAKALSHTLLMFDNFYDVEEKAKAGNEYAKQVMQSWADAEWFLNRPALAEKLTVTVFKVTGETNTDDLSPAPDAWSRPDIPLHALAMLKNAREGIEPDQPGVVGPIKQIEALQQKGFPLAYVGDVVGTGSSRKSATNSVLWFMGDDIPHVPNKRGGGLCLGGKIAPIFFNTMEDAGALPIEVDVSNLNMGDVIDVYPYKGEVRNHETGELLATFELKTDVLIDEVRAGGRIPLIIGRGLTTKAREALGLPHSDVFRQAKDVAESDRGFSLAQKMVGRACGVKGIRPGAYCEPKMTSVGSQDTTGPMTRDELKDLACLGFSADLVMQSFCHTAAYPKPVDVNTHHTLPDFIMNRGGVSLRPGDGVIHSWLNRMLLPDTVGTGGDSHTRFPIGISFPAGSGLVAFAAATGVMPLDMPESVLVRFKGKMQPGITLRDLVHAIPLYAIKQGLLTVEKKGKKNIFSGRILEIEGLPDLKVEQAFELTDASAERSAAGCTIKLNKEPIIEYLNSNIVLLKWMIAEGYGDRRTLERRIQGMEKWLANPELLEADADAEYAAVIDIDLADIKEPILCAPNDPDDARPLSAVQGEKIDEVFIGSCMTNIGHFRAAGKLLDAHKGQLPTRLWVAPPTRMDAAQLTEEGYYSVFGKSGARIEIPGCSLCMGNQARVADGATVVSTSTRNFPNRLGTGANVFLASAELAAVAALIGKLPTPEEYQTYVAQVDKTAVDTYRYLNFNQLSQYTEKADGVIFQTAV”, the protein production result is on record as “not failed”.
With “MLEIIQKTLTDNAIIGAIFSSIAIIFLGFYIRKRNILTGAASKILTKVVLTVAIPALAFTSFMKDINQKELHEGINILIWGFVIYILLIVLTKFIFARVKGDKQDVFRVLTIFGSTTFFGVPIVKAVYGSVGAMYSSIFNIAYRVFLYSYGYIKMSGVKMDKENLKKNLKEMLLNPVIIATFLGLFIWLFQGMLPQVQIGDKSYAFLRIDQTLPWLYKPLTYLDKLCSPLAWLAIGITLAEVPFKQAVGQKEPWVYSLIKIILVPVINLGLLVVLNKTGILPVSFEGMATTVIMLATPTATVAAAYAISFDKEALLTSNCSLLSTVVAVVAMPFWIVILQIIKNIGLFA”, the protein production entry is “failed”.
In the case of “MLEINKIHQMNCFDFLDQVENKSVQLAVIDPPYNLSKADWDSFDSHNEFLPFTYRWIDKVLDKLDKDGSLYIFNTPFNCAFICQYLVSKGMIFQNWITWDKRDGMGSAKRGFSTGQETILFFSKSKNHTFNYDEVRVPYESTDRIKHASEKGILKNGKRWFPNPNGRLCGEVWHFSSQRHKEKVNGKTVKLTHITPKPRDLIERIIRASSNPNDLVLDCFMGSGTTAIVAKKLGRNFIGCDMNAEYVNQANFVLNQLEIN” it was “not failed”; in that of “MLEKSLAILFALLILATLINRFLVWRLPERKGDEVTLRIRTWWGIVICFSLVISGPRWMTLTFFALISFLALKEYCTLISVHFPRWLYWVIPLNYLLIGFNCFELFLLFIPLAGFLILATWRVFVGDPSGFLHTVSAIFCGWIMTVFTLSHAAWLLMLPTINIQGGALLVLFLLALTESNDIAQYLWGKSCGRRKVVPKVSPGKTLEGLVGGVITTMIASLIIGPLLTPLNTLQVLLAGLLIGISGFCGDVVMSATKRDVGVKDSGKLLPGHGGLLDRIDSLIFTAPVFFYFIRYCCY”, “failed”; in that of “MLEQIFILLIALVVLVWSADKFVFGASSLARNLGISPMIIGLTIVAMGSSAPEMMVAATASMQGNPDTAIGNAIGSNITNIALVLGITALLQPLTVSSQTIKREIPLILAVTALGYWLLFDNHFSFIEGIILISGFAIYIITLLVITLKKTRGKPSDDPLIIEAEQDVAAAVSMKLSLIWLGVGIILLPLSASFLVDSSVYIAKAYGISDLVIGLTIIAIGTSLPELAASIMSIIKKEDDLALGNIIGSNIFNILAVLPIAGLIAPGNIDALAASRDAPYMLGITLLLFILCFSRRLGAFRITRAKGALLLLSFIAYQVLLFSQLS”, “failed”.
With “MLERIANIQKKLSKSIVERKINEVRKVAAVDVSYKEEKARAALVITTFPEGEVLKTKVIETTVSFPYIPTFFFLRETKPILIATKGETFDVLIVEGHGKAHPRGYGLASHIGVVLRKPTIGVAKRLLKNTPKDTYKKVGKVYVSVGNLITLEDATKIIRAILDESGYPKPLKLADKLSKGRIYEVKNTPSPNRSRKKRGNRGKDNNNSQGNLEHHHHHH”, the protein production entry was “failed”.
Under “MLETLHLTPLDRWIDAWLAHQRALGRAYDNEGWILGHLRRFIVSSEAGDLDQKGFDRWCASLRHLSPTTRRGRQFVVRKLCLFRRRAEPGCFVPDSIYFARKLPYRRPVILEPAQVSRMLAAADGLAPTTNSPLLPAVMRLATIILYTAGLRRGELARLTLDDVEPQSGLLRIRQSKFHKSRLVPLSPDAAGALRTYLHLRLAPSFNADPSSALLCCGRAGRRGYTGAGLGQAINRLFVTADVRDSEGRLPRVHDIRHSFGVQALIRWYRAGADVQSCLPSLAIYMGHVSVVSTAHYLHFVPTMRELASSRFEAAFGNIVVEAKP” stands “failed”; under “MLFAAEGGGFFSSSASGYSNGLALLLLGQKTEQKPIKVSSQWNHYHLVLEDSDTGFRLDSSKNWLSSACTSLICFGRKSERLESEGKKDEAPSVEDYNNCEVTNRFALKSSLKKRSFSDVVIGDDDVSRDGVVDHIDRRKVQWPDTCGIEIAEVREFEPRYGCFLL”, “failed”.
In the case of “MLFEASLVAVWAFFCGIDKYDVALNIHRPLITGPVVGLIMGDMQIGLIAGATLELAWLGLVPNAGAQPPDVTMGTIAAVAFAVMTGQSPEVAMGVGMPIAVLMQMLVIGFFAMTSFTMGKADKYAEEANTNGIDFLLLSTITMRSMLYAVIAFLTVYFGEHGAAWIDANAPKTLLEGLGIGAKMVPAIGFAMLLKIMWSKEVAGVFFIGFVMTTYLQLPIMAVAILGASAAALYYFFSGNGNKNSNQEFEDFEDGI” it was “failed”.
In the case of “MLFELVILFVILFLFLGYPISKAWDSFQSKKENSSSILKFEPQEILSICLSYFIFGLGIMWNANDVRGGIPLHKFEKNGMMSDQYASLAHDHIAIVVLLVILGAVSYWRLTKGLTKLSPIFYIFYSTLMIVNIVYTFIYITHTGFAFYTELGGLRYIPVFCIQVGMLAFSLLFIAKLRNTLDYFIQSQNEKDYTQSNRIILLLYRISFGYQKMATVWMISLFPVLLIIQFILILFGQKPDSFIRVFMETSSFNYSKIPAPSPQIVSGDGHYLCTVSVKGHKNIVKPLRAGIRHGERITVNRQLLIANAFENVIEERVPKCHKVIRNFYDKYGYPISKHINTKWSADFVYILMKPLEWFFLFVLYTVDKNPENRIHIQYSELRK”, the protein production entry is “failed”.
Under “MLFLDSVAMKEKPEGREEYPFSVPAMRHLERLEFKTPITFFAGNNGSGKSTLLEGLAAGMTAYAIGNHGDVKGDLYLQHAETVAKAFYFARKKYPKIRMFLRAEDVLGYIRRQNENALDDFRWEREKALKKGEDFPEETPEIFRGIVRNNSLDRRSHGEGFLDIMHRRLHGAGLYFLDEPESPLSPQKQLELAAIIRQAADSGGQLIIATHSPVLLAIPEATIYYFDEDGITERLYDELENIAFLRRFLDRPSKYLDDLEHHHHHH” stands “not failed”; under “MLFPLILQRPMLSTPTLPRKTFAFLLGGVLLVGLVACGSSTPMAPASSASSALESAAADSLLRQVKTQIREATDEGSLDSLKQARAWAKQATGGDRAALAHYYAALADYRMSNRLPEEDEARRGRVIEDAIGHLKRATEINGTMADAWALLSGYYGQMMGMNPMQGMSLGPKANEAMKRAKEHGPNNPRVWIIDGTSDFYTPGMFGGDKEKALTKFEKAARLAEQGSPDDPLMPGWGHAEAHAWVGVAHMEAERYDPARTAFEAALDLNPDYGWVRSVLLPRLEQQAG”, “failed”; under “MLFQDDKGVGVAIYRRRFTVLGCASSPGVPRINGDWGACDPQNPRNRRTRAAFMVEQIGPDGGKTTVVIDTGPDFREQMIAAKVQAVDAVLYTHAHADHLHGIDDLRIYFALQKSRIPIWADPVTMARIRDGFAYCLETPAGSNYPPIVRPQLIADINDPVIIDGAGGPIPFKVHMQQHGDVHSLGFRIGDVAYCTDVSDFPAESLPKLTGLDVLVIDALQYRYHPSHLSLEQALGWIEALAPKRAILTHMHIPLDYDTVMRETPDHVEPAYDQMRFEVEIEAP”, “failed”.
As for “MLGGTAPKIAKAYQKTLTTNLNDVKNRLKDVTFKPKVLHFVNATNLNQVDGTGTIVNEWIKAAGGQNALKQKGNMISVTTETLAKSDPDVIIVGSATTAEARAALKKNAVLSKLTAVKKNRVYGNPQGTFPWDRYSAEEALQVLWAAKKLHPDQFQLEHHHHHH”, the protein production entry is listed as “not failed”.
